Data from US20240392262A1, “TRANSPOSASE AND USES THEREOF” (Poseida Therapeutics, Inc., published 2024).
Residue numbers refer to the chain shown, from its start.

T1: GFP1 Right NT-betaN TAL-PBx (synthetic construct)
T1 chain: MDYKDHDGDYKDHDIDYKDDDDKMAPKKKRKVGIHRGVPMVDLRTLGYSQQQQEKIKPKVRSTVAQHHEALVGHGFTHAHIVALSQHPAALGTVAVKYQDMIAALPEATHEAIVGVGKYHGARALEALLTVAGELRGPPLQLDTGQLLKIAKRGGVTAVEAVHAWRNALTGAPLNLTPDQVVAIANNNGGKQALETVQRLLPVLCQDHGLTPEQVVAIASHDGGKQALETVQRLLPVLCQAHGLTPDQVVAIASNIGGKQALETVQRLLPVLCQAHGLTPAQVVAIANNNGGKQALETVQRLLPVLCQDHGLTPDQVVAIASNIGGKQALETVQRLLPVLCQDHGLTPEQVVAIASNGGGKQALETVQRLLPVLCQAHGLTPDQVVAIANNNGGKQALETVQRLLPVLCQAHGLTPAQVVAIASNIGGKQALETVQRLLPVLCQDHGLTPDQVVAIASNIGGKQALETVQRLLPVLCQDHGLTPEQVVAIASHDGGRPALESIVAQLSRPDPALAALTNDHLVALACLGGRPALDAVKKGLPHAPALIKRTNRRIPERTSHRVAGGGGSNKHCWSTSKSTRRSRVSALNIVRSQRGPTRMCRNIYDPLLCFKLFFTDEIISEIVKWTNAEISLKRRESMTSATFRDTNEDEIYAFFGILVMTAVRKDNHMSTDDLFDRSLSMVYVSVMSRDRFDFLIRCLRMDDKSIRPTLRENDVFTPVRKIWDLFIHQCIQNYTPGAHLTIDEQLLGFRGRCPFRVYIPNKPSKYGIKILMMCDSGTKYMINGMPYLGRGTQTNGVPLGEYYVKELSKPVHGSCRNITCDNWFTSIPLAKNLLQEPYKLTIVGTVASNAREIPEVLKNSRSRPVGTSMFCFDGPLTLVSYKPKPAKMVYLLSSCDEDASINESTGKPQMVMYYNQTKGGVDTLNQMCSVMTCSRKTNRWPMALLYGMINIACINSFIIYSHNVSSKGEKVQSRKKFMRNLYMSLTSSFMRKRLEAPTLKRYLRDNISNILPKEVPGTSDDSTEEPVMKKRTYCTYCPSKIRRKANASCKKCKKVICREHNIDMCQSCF

T2: GFP1 Right NT-G TAL-PBx (synthetic construct)
T2 chain: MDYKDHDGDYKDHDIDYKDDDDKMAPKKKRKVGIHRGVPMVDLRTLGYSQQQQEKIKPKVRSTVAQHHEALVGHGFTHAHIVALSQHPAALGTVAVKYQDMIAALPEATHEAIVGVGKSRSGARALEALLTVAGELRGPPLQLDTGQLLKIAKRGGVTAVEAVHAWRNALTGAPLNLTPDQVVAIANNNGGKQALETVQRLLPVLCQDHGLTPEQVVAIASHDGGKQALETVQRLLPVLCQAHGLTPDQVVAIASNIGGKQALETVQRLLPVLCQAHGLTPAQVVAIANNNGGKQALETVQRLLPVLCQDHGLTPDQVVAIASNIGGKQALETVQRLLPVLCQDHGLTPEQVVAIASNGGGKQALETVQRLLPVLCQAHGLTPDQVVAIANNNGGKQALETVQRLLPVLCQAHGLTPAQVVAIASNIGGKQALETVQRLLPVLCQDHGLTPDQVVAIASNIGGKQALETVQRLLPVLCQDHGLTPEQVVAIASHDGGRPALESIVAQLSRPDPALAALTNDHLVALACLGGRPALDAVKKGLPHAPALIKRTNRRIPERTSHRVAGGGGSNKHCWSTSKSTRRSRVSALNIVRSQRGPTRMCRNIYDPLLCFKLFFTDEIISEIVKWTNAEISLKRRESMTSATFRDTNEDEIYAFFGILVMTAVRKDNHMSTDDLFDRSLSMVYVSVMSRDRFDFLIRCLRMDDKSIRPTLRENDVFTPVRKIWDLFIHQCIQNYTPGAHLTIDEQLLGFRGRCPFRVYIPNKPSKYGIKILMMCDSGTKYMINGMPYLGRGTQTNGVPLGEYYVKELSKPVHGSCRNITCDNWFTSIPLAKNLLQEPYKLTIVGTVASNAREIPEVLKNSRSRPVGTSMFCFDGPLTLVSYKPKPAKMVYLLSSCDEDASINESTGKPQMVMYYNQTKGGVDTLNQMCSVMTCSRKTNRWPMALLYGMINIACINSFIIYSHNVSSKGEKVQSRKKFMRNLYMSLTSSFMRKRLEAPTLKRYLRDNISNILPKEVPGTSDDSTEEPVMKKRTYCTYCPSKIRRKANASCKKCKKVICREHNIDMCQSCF

T3: GFP1 Right TALEN NT-betaN (synthetic construct)
T3 chain: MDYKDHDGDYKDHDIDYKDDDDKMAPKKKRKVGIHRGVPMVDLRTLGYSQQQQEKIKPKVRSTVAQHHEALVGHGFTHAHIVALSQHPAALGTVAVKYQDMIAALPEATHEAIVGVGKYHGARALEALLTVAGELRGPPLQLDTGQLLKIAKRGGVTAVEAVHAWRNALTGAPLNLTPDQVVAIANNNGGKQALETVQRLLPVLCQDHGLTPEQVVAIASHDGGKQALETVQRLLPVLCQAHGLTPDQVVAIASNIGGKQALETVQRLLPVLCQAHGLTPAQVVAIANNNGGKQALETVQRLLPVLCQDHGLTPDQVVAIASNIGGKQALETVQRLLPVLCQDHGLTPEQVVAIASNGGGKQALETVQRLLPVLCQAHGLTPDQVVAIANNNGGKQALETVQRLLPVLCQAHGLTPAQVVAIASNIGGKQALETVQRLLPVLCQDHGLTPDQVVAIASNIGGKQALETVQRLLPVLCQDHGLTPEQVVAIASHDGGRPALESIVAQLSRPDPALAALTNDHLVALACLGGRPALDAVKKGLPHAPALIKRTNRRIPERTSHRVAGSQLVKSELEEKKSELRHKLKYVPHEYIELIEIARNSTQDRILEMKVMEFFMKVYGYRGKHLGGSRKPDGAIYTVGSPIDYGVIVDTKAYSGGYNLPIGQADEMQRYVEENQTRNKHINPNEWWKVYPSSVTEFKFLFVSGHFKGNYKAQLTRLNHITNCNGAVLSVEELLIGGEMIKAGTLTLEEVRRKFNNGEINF

T4: GFP1 Right TALEN NT-G (synthetic construct)
T4 chain: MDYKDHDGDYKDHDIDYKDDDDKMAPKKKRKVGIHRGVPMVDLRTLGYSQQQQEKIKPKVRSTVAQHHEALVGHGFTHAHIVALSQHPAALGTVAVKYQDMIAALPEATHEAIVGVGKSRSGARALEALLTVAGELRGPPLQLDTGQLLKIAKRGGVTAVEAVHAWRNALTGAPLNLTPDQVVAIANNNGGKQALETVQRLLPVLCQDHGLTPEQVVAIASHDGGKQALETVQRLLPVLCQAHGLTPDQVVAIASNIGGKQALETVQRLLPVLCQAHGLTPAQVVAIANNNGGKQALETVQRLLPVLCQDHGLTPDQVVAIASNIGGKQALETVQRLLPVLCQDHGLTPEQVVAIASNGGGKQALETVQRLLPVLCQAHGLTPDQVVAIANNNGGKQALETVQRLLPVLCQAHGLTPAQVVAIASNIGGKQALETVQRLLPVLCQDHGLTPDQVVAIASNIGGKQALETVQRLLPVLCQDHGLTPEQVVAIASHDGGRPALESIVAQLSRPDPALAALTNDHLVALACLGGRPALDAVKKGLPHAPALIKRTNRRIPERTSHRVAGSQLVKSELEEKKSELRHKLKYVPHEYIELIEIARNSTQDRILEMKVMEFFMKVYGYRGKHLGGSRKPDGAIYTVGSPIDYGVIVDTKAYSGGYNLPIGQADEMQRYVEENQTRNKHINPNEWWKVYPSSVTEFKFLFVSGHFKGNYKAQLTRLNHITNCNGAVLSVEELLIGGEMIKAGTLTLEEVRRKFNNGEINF

T5: GFP1 Right TALEN (synthetic construct)
T5 chain: T4 chain with S119Q, R120W

B1: GFP1R 13 bp 5'G (dsDNA)
DNA 1: GGCAGATGAACGCAATCTCACGGCTTAACTACTGACCTGAAGTTCATCTGCC
DNA 2: GGCAGATGAACTTCAGGTCAGTAGTTAAGCCGTGAGATTGCGTTCATCTGCC
B2: GFP1 R SSA site 5'C (dsDNA)
DNA 1: GGCGCAGATGAACGCAAGCTGACCCTGAAGTTCATCTGCGTT
DNA 2: AACGCAGATGAACTTCAGGGTCAGCTTGCGTTCATCTGCGCC
B3: GFP1 R SSA site 5'G (dsDNA)
DNA 1: B2 DNA 1 with C3G, G40C
DNA 2: B2 DNA 2 with C3G, G40C
B4: GFP1 R SSA site 5'A (dsDNA)
DNA 1: B2 DNA 1 with C3A, G40T
DNA 2: B2 DNA 2 with C3A, G40T
B5: GFP1 R+R SSA site (dsDNA)
DNA 1: B2 DNA 1 with C3T, G40A
DNA 2: B2 DNA 2 with C3T, G40A

How the values were obtained:
[1] = biological target: T1, GFP1 Right NT-betaN TAL-PBx; assay: cell_activity; settings: tags: 3xFlag, SV40 NLS; chain copies: 2
GFP1 Right NT-G TAL-PBx = biological target: T2, GFP1 Right NT-G TAL-PBx; assay: cell_activity; settings: tags: 3xFlag, SV40 NLS; chain copies: 2
[2] = biological target: T3, GFP1 Right TALEN NT-betaN; assay: cell_activity; SSA; settings: tags: 3xFlag, SV40 NLS, FokI fusion; chain copies: 2
Description: (§1) The TALEN NT-G and NT-ON designs were tested using the single strand annealing reporter (Example 17). The target site corresponding to the GFP1 Right TALEN (SEQ ID NO: 288) was modified to replace T 5′ of the target sites with either an A, a C, or a G to create SEQ ID NOs: 403-405). A transfection mixture containing 90 ng of each TALEN, 10 ng of the corresponding reporter and 1.5p of Transit-2020 transfection reagent in a total volume of 20 μl of Serum Free OptiMem medium were assembled. A TALEN or a reporter were transfected alone as negative controls. An aliquot of 30,000 HEK293T cells in 180 μl of DMEM medium supplemented with 10% FBS was added and the transfection mixture was plated in 96 well plates and incubated for one day at 37° C. at 5% CO2. The following day, a lysis buffer was added to the cells and the lysate was transferred to a white 96 well plate. A buffer containing substrate for Firefly luciferase was mixed with the cells and luciferase luminescence was detected using a plate reader.

GFP1 Right TALEN NT-G = biological target: T4, GFP1 Right TALEN NT-G; assay: cell_activity; SSA; settings: tags: 3xFlag, SV40 NLS, FokI fusion; chain copies: 2
Description: as §1

GFP1 Right TALEN = biological target: T5, GFP1 Right TALEN; assay: cell_activity; SSA; settings: tags: 3xFlag, SV40 NLS, FokI fusion; chain copies: 2
Description: as §1

| Binder | activity [1] [% GFP+] | activity (GFP1 Right NT-G TAL-PBx) [% GFP+] | activity [2] [RLU] | activity (GFP1 Right TALEN NT-G) [RLU] | activity (GFP1 Right TALEN) [RLU] |
| --- | --- | --- | --- | --- | --- |
| B1 | 20.4 | 20.4 |  |  |  |
| B2 |  |  | 1.12e+06 | 693000 | 419000 |
| B3 |  |  | 1.21e+06 | 1.07e+06 | 294000 |
| B4 |  |  | 1.56e+06 | 1.14e+06 |  |
| B5 |  |  | 1.45e+06 | 1.21e+06 |  |
